28 molecules from patent EP3020822A1 (Janssen Biotech, Inc., dated 2016) can be followed below.

The target of one assay is murine TLR3, full length (mouse, UniProt Q99MB1 26-905). As to the kind of experiment: cell-based or functional assay.
In assay [1] the target is T1, human TLR3 extracellular domain (ECD) (human, UniProt O15455 24-703).
T1 construct: amino acids 1-703 of human TLR3; the structural model covers residues 30-687; also called huTLR3 ECD; TLR3 ECD
As to the kind of experiment: Biacore (data not shown). In general terms: SPR reads the build-up and loss of mass on a sensor chip optically.

The target of assay [2] is T1, human TLR3 extracellular domain (ECD). Briefly: ELISA, huTLR3 ECD coated, mAb titrated, anti-human IgG-peroxidase. A general note: ELISA stands for enzyme-linked immunosorbent assay.
The target of a further assay is cynomolgus TLR3 (cynomolgus, UniProt A0A2K5WT39 32-912). As to the kind of experiment: cell-based or functional assay.
Assay [3] addresses T1, human TLR3 extracellular domain (ECD). As to the kind of experiment: ELISA, human TLR3 ECD coated, goat anti-human Fc:HRP, luminescence.

Substitutions are numbered along the chain they refer to. Numbers in names are those of the source.

B1: mAb 5429 (antibody, mouse IgG1, kappa, V domains shown)
VH: EVQLVASGGGLVKPGASLKLSCVASGFTFSDYWMAWVRQTPGKPMEYIGDIKSDGSKVNYAPSLKNRFTISRDNARTTLYLQMSNVRSEDTATYYCNRDIGPDWYFDFWGPGTMVTVSS
VL: DIQMTQSPTSLSASLGETVTIECRASEDIYNGLAWYQQKPGKSPQLLIYDSNSLHTGVPSRFSGRGSGTQYSLRINSLQSEDVASYFCQQYYDYPLTFGSGTKLEIKR
Regarding B1, the “IC50, poly(I:C) ISRE luciferase reporter gene assay, HEK293T cells with full-length murine TLR3” value (“IC50 … with full-length murine TLR3” for short) with murine TLR3, full length amounted to 0.5 µg/mL.

B2: mAb c1811 (antibody, mouse IgG1, kappa, V domains shown)
VH: B1 VH
VL: B1 VL
On to B2, for which the “IC50 … with full-length murine TLR3” value in the assay with murine TLR3, full length worked out at 0.7 µg/mL.

B3: mAb 13 (antibody, human IgG4 S228P, V domains shown)
VH: QVELVQSGAEVKKPGESLKISCKGSGYSFTNYWVGWVRQMPGKGLEWMGFIDPSDSYTNYAPSFQGQVTISADKSISTAYLQWSSLKASDTAMYYCARELYQGYMDTFDSWGQGTLVTVSS
VL: DIQMTQSPSSLSASVGDRVTITCRASQSIGLYLAWYQQKPGKAPKLLIYAASSLQSGVPSRFSGSGSGTDFTLTISSLQPEDFATYYCQQGESILSTFGQGTKVEIK
notes: human IgG4 with S229P; also called candidate 13; Fab 13
A word on the Kd: it is a measure of binding affinity in units of concentration. Higher therefore signals a looser complex. The term EC50 denotes the concentration giving half of the maximal effect. In assay [1], B3 yielded a Kd of under 10 nM. Besides, the EC50 in assay [2] was found to be 0.0235 µg/mL.

B4: mAb 19 (antibody, human IgG4 S228P, V domains shown)
VH: B3 VH
VL: B3 VL with G91Y, E92G, I94V, L95S, S96I
notes: human IgG4 with S229P; also called candidate 19; Fab 19
In assay [1], B4 returned a Kd of under 10 nM. Moreover, it took 0.0665 µg/mL to reach a half-maximal effect in assay [2] (EC50).

B5: mAb 15EVQ (antibody, human IgG4 S228P, kappa, F234A L235A)
heavy: not shown
light: DIQMTQSPSSLSASVGDRVTITCRASQSIGLYLAWYQQKPGKAPKLLIYAASSLQSGVPSRFSGSGSGTDFTLTISSLQPEDFATYYCQQGNTLSYTFGQGTKVEIKRTVAAPSVFIFPPSDEQLKSGTASVVCLLNNFYPREAKVQWKVDNALQSGNSQESVTEQDSKDSTYSLSSTLTLSKADYEKHKVYACEVTHQGLSSPVTKSFNRGEC
In the case of B5, in the assay with cynomolgus TLR3, the “IC50, cyno ISRE reporter gene assay” value was found to be 1.74 µg/mL and the “IC50, cyno NF-κB reporter gene assay” value was found to be 4.18 µg/mL.

B6: mAb 14 (antibody, human IgG4 S228P, kappa, V domains shown)
VH: B3 VH
VL: DIQMTQSPSSLSASVGDRVTITCRASQSIGLYLAWYQQKPGKAPKLLIYAASSLQSGVPSRFSGSGSGTDFTLTISSLQPEDFATYYCQQAETVSPTFGQGTKVEIKR
notes: human IgG4 with S229P; also called candidate 14; Fab 14
In assay [1], B6 had a Kd of under 10 nM. This molecule also had an EC50 in assay [2] of 0.0336 µg/mL.

B7: mAb 15-1 (antibody, human IgG4 S228P, kappa, F234A L235A, V domains shown)
VH: B3 VH with Q1E, E3Q, F50R
VL: B6 VL with A91G, E92N, V94L, P96Y
notes: also called HC: F50R
Consider B7, for which, in assay [3], the binding result was “binds”.

B8: mAb 15-5 (antibody, human IgG4 S228P, kappa, F234A L235A, V domains shown)
VH: B3 VH with Q1E, E3Q, V34I, G35S, F50R, A61S, Q67H
VL: B6 VL with A91G, E92N, V94L, P96Y
notes: also called HC: F50R/V34I/G35S/A61S/Q67H
Regarding B8, in assay [3], the binding result is listed as “binds”.

B9: mAb 15 (antibody, human IgG4 S228P, kappa)
heavy: not shown
light: B5 light
With B9, the “IC50 … with full-length murine TLR3” value in the assay with murine TLR3, full length is 22 µg/mL.

B10: mAb 15-4 (antibody, human IgG4 S228P, kappa, F234A L235A, V domains shown)
VH: B3 VH with Q1E, E3Q, A61S, Q67H
VL: B6 VL with A91G, E92N, V94L, P96Y
notes: also called HC: A61S/Q67H
B10: the binding result in assay [3] is “binds”.

B11: mAb 15-2 (antibody, human IgG4 S228P, kappa, F234A L235A, V domains shown)
VH: B3 VH with Q1E, E3Q, V34I
VL: B6 VL with A91G, E92N, V94L, P96Y
notes: also called HC: V34I
On to B11, for which, in assay [3], the binding result is recorded as “binds”.

B12: mAb 15-3 (antibody, human IgG4 S228P, kappa, F234A L235A, V domains shown)
VH: B3 VH with Q1E, E3Q, V34I, G35S
VL: B6 VL with A91G, E92N, V94L, P96Y
notes: also called HC: V34I/G35S
As for B12, the binding result in assay [3] was “binds”.

B13: mAb 15-9 (antibody, human IgG4 S228P, kappa, F234A L235A, V domains shown)
VH: B3 VH with Q1E, E3Q, V34I, G35S, F50R, A61S, Q67H, E99Q
VL: B6 VL with A91G, E92N, V94L, P96Y
notes: also called HC: F50R/V34I/G35S/A61S/Q67H/E99Q
As to B13, in assay [3], the binding result is listed as “binds”.

B14: mAb 15-6 (antibody, human IgG4 S228P, kappa, F234A L235A, V domains shown)
VH: B3 VH with Q1E, E3Q, V34I, G35S, E99Q
VL: B6 VL with A91G, E92N, V94L, P96Y
notes: also called HC: V34I/G35S/E99Q
Take B14: in assay [3], the binding result was “binds”.

B15: mAb 1 (antibody, human IgG4 S228P)
heavy: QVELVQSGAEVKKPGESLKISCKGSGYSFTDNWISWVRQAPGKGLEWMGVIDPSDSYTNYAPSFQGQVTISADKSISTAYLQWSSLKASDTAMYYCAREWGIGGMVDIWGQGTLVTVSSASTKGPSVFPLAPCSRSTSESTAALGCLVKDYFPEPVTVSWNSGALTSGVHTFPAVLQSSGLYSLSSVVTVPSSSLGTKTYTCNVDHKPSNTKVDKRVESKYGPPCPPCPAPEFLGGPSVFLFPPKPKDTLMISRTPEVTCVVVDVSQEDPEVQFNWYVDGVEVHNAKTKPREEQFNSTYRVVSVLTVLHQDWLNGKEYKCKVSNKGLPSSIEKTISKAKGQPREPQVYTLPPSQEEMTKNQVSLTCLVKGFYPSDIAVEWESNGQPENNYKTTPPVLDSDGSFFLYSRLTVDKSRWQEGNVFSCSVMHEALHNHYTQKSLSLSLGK
VL: DIVLTQSPATLSLSPGERATLSCRASQYIDISYLAWYQQKPGQAPRLLIYDASSRATGVPARFSGSGSGTDFTLTISSLEPEDFAVYYCQQYYSLSITFGQGTKVEIK
notes: human IgG4 with S229P; also called candidate 1; Fab 1
As for B15, the Kd in assay [1] was under 10 nM. Further, the EC50 in assay [2] is 0.0172 µg/mL.

B16: mAb 2 (antibody, human IgG4 S228P, V domains shown)
VH: QVELVQSGAEVKKPGESLKISCKGSGYSFNNYWIGWVRQMPGKGLEWMGIIDPQDSWTNYAPSFQGQVTISADKSISTAYLQWSSLKASDTAMYYCARNIYEFDYWGQGTLVTVSS
VL: DIQMTQSPSSLSASVGDRVTITCRASQGISSWLNWYQQKPGKAPKLLIYGASNLQSGVPSRFSGSGSGTDFTLTISSLQPEDFAVYYCQQYDDFSITFGQGTKVEIK
notes: human IgG4 with S229P; also called candidate 2; Fab 2
Molecule B16 yielded a Kd in assay [1] of under 10 nM. This molecule also returned an EC50 in assay [2] of 0.0531 µg/mL.

B17: mAb 16 (antibody, human IgG4 S228P, V domains shown)
VH: B16 VH with Q54G, W57Y
VL: B16 VL
notes: human IgG4 with S229P; also called candidate 16; Fab 16
Regarding B17, in assay [1], the Kd is under 10 nM. Further, the midpoint of the response in assay [2], the EC50, lay at 0.0437 µg/mL.

B18: mAb 17 (antibody, human IgG4 S228P, V domains shown)
VH: QVELQQSGPGLVKPSQTLSLTCAISGDSVSTRSAAWGWIRQSPGRGLEWLGRIYMRSKWYNDYAVSVKSRITINPDTSKNQFSLQLNSVTPEDTAVYYCARHTYPYLSFDVWGQGTLVTVSS
VL: DIELTQPPSVSVAPGQTARISCSGDALGGYFVSWYQQKPGQAPVLVIYDDDNRPSGIPERFSGSNSGNTATLTISGTQAEDEADYYCASYDGDEFTVFGGGTKLTVL
notes: human IgG4 with S229P; also called candidate 17; Fab 17
As for B18, the Kd in assay [1] was under 10 nM. Also, the concentration giving a half-maximal response (EC50) in assay [2] was found to be 0.0138 µg/mL.

B19: mAb 5 (antibody, human IgG4 S228P, V domains shown)
VH: B18 VH
VL: B18 VL with A88Q, G92E, E94S, F95A
notes: human IgG4 with S229P; also called candidate 5; Fab 5
On to B19, for which the Kd in assay [1] is under 10 nM. Besides, the EC50 in assay [2] was determined as 0.0199 µg/mL.

B20: mAb 4 (antibody, human IgG4 S228P, V domains shown)
VH: B18 VH with R52K, Y54S, M55Y, K58R
VL: B18 VL
notes: human IgG4 with S229P; also called candidate 4; Fab 4
With B20, in assay [1], the Kd was under 10 nM. This molecule came in with an EC50 in assay [2] of 0.0128 µg/mL.

B21: mAb 3 (antibody, human IgG4 S228P, V domains shown)
VH: B18 VH with Y54H, M55R
VL: B18 VL
notes: human IgG4 with S229P; also called candidate 3; Fab 3
In the case of B21, in assay [1], the Kd is under 10 nM. In assay [2], this molecule returned a concentration giving a half-maximal response (EC50) of 0.0234 µg/mL.

B22: mAb 6 (antibody, human IgG4 S228P, V domains shown)
VH: B18 VH
VL: B18 VL with A88G, G92S, D93N, E94S, F95L
notes: human IgG4 with S229P; also called candidate 6; Fab 6
Turning to B22, the Kd in assay [1] was under 10 nM. The molecule further displayed an EC50 in assay [2] of 0.019 µg/mL.

B23: mAb 7 (antibody, human IgG4 S228P, V domains shown)
VH: B18 VH
VL: B18 VL with A88S, G92S, E94S, F95L
notes: human IgG4 with S229P; also called candidate 7; Fab 7
For the molecule B23, the Kd in assay [1] is under 10 nM. The molecule further had an EC50 in assay [2] of 0.0161 µg/mL.

B24: mAb 8 (antibody, human IgG4 S228P, V domains shown)
VH: QVELQQSGPGLVKPSQTLSLTCAISGDSVSSNSAAWGWIRQSPGRGLEWLGIIQTRSKWYNDYAVSVKSRITINPDTSKNQFSLQLNSVTPEDTAVYYCARYSYPFYSIDYWGQGTLVTVSS
VL: DIELTQPPSVSVAPGQTARISCSGDNIGSYYVHWYQQKPGQAPVLVIYEDSERPSGIPERFSGSNSGNTATLTISGTQAEDEADYYCQSYDSQFSFGVFGGGTKLTVL
notes: human IgG4 with S229P; also called candidate 8; Fab 8
As to B24, the Kd in assay [1] was under 10 nM. In assay [2], this molecule showed an EC50 of 0.0186 µg/mL.

B25: mAb 10 (antibody, human IgG4 S228P, V domains shown)
VH: B24 VH with T55K, D62N
VL: DIELTQPPSVSVAPGQTARISCSGDNIGSYYVHWYQQKPGQAPVLVIYEDSERPSGIPERFSGSNSGNTATLTISGTQAEDEADYYCQSYDTPVYSVFGGGTKLTVL
notes: human IgG4 with S229P; also called candidate 10; Fab 10
In the case of B25, in assay [1], the Kd is under 10 nM. The same molecule came in with an EC50 in assay [2] of 0.0158 µg/mL.

B26: mAb 11 (antibody, human IgG4 S228P, V domains shown)
VH: B24 VH with T55K, D62N
VL: B25 VL with Q88S, T92E, V94N, Y95F, S96N
notes: human IgG4 with S229P; also called candidate 11; Fab 11
Take B26: the Kd in assay [1] was under 10 nM. Also, the EC50 in assay [2] amounted to 0.0263 µg/mL.

B27: mAb 18 (antibody, human IgG4 S228P, V domains shown)
VH: B24 VH with T55K, D62N
VL: B24 VL
notes: human IgG4 with S229P; also called candidate 18; Fab 18
In assay [1], B27 came in with a Kd of under 10 nM. For the same molecule, in assay [2], the EC50 worked out at 0.00968 µg/mL.

B28: mAb 9 (antibody, human IgG4 S228P, V domains shown)
VH: B24 VH with T55I, V65L
VL: B24 VL
notes: human IgG4 with S229P; also called candidate 9; Fab 9
With B28, in assay [1], the Kd is under 10 nM. Also, in assay [2], the midpoint of the response, the EC50, lay at 0.0226 µg/mL.
